According to PMC5703498, “Plant-type phytoene desaturase: Functional evaluation of structural implications” (PLoS ONE, 2017):
Numbering of substitutions follows the chain as printed. In names and notes the source's numbering stands.

B1: Phytoene desaturase (OsPDS-His6) (Oryza sativa Indica Group) (protein)
chain: AGQLSSFFRNSEQPTKPLQVVIAGAGLAGLSTAKYLADAGHKPILLEARDVLGGKIAAWKDEDGDWYETGLHIFFGAYPNIQNLFGELGINDRLQWKEHSMIFAMPNKPGEFSRFDFPETLPAPLNGIWAILRNNEMLTWPEKVKFALGLLPAMVGGQAYVEAQDGFTVSEWMKKQGVPDRVNDEVFIAMSKALNFINPDELSMQCILIALNRFLQEKHGSKMAFLDGNPPERLCMPIVDHVRSLGGEVRLNSRIQKIELNPDGTVKHFALTDGTQITGDAYVFATPVDILKLLVPQEWKEISYFKKLEKLVGVPVINVHIWFDRKLKNTYDHLLFSRSSLLSVYADMSVTCKEYYDPNRSMLELVFAPAEEWVGRSDTEIIEATMQELAKLFPDEIAADQSKAKILKYHVVKTPRSVYKTIPDCEPCRPLQRSPIEGFYLAGDYTKQKYLASMEGAVLSGKLCAQSVVEDYKMLSRRSLKSLQSEVPVAS
B2: Phytoene desaturase (OsPDS-His6) (Oryza sativa Indica Group; R300S) (protein)
chain: B1 chain with R213S

Legend:
Format in all cases: biochemical, Oryza sativa
[1] = substrate: CC(C)=CCC/C(C)=C/CC\C(C)=C/C=C/C(C)=C/C=C\C=C(/C)CC/C=C(\C)CC/C=C(\C)CCC=C(C)C; test: Michaelis-Menten kinetics of purified enzyme in liposome assay (KM), HPLC; details: FAD competes with phytoene at the active site
[2] = substrate: CC(C)=CCC/C(C)=C/CC/C(C)=C/CC/C(C)=C/C=C\C=C(/C)CC/C=C(\C)CC/C=C(\C)CCC=C(C)C; test: as above; details: FAD hydrophobic substrate cavity, C11-C12 near the flavin
[3] = substrate: CCCCCCCCCCC1=CC(=O)C(C)=C(C)C1=O; test: Michaelis-Menten kinetics of purified enzyme in liposome assay (KM); details: FAD electron acceptor; same substrate cavity as the carotene, successively occupied, near the FAD
[4] = substrate: CC(C)=CCC/C(C)=C/CC/C(C)=C/CC/C(C)=C/C=C\C=C(/C)CC/C=C(\C)CC/C=C(\C)CCC=C(C)C; test: Michaelis-Menten kinetics of purified mutant in liposome assay (KM); details: FAD hydrophobic substrate cavity
[5] = substrate: CCCCCCCCCCC1=CC(=O)C(C)=C(C)C1=O; test: as above; details: FAD electron acceptor; same substrate cavity as the carotene

Row | Protein | Km [1] [mM] | Km [2] [mM] | Km [3] [mM] | Km [4] [mM] | Km [5] [mM]
1 | B1 | 66.8 ± 20.7 | 53.9 ± 18.1 | 1.3 ± 0.2 |  | 
2 | B2 |  |  |  | 4.5 ± 2.6 | 0.4 ± 0.1
